Experimental data: the RNAGym collection of RNA variant scans (doi:10.1073/pnas.2313332121)
Fewer inactive variants are shown than the library holds.

B1: TPR 5TU (parent)
chain: GGAUCUUCUCGAUCUAACAAAAAAGACAAAUCUGCCACAAAGCUUGAGAGCAUCUUCGGAUGCAGAGGCGGCAGCCUUCGGUGGCGCGAUAGCGCCAACGUUCUCAACUAUGACACGCAAAACGCGUGCUCCGUUGAAUGGAGUUUAUCAUG

Variants of: B1
Experiment: polymerase ribozyme fitness, log enrichment relative to wild type (log ratio); higher = more active; in vitro selection for triplet polymerase activity
Outline: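 To select mutant libraries of each subunit of a heterodimeric triplet polymerase ribozyme, built by PCR and transcribed, each was annealed with a biotinylated primer, partner subunit and triplets, then incubated frozen at −7 °C. Extended constructs were gel-excised, captured on streptavidin beads and amplified by RT-PCR, in one round carried out in triplicate. Illumina sequencing of input and output libraries kept genotypes with ≥10 input reads and ≥1 read per output. Fitness is the base-2 logarithm of genotype enrichment relative to wild-type enrichment, from inverse-variance-weighted replicate averages.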

Variant	polymerase ribozyme fitness (log ratio)
GGAUCUUCUCGAUCUAACAAAAAAGACAAAUCUGCCACAAAGCUUGAGAGCAUCUUAGGCUGCAGAGGCGGCAGCCUUCGGUGGAGCGAUAGCGCCAACGUUCUCAACUAUGACACGCAAAACGCGUGCUCCGUUGAAUGGAGUUUAUCAUG [C57A A60C C85A]	-3.08
GGAUCUUCUCGAUCUAACAAAAAAGACAAAUCUGCCACAAAGCUUGAGAGCAUCUUAGGGUGCAGAGGCGGCAGCCUUCGGUGGCGCGAUAGCGCCAACGAUCUCAACAAUGUCACGCAAAACGCGUGCUCCGUUGAAUGGAGUUUAUCAUG [C57A A60G U101A U109A A113U]	-3.65
GGAUCUUCUCGAUCUAACAAAAAAGACAAAUCUGCCACAAAGCUUGAGAGCAUCUUAGGAUGCAGAGGCGGCAGCCUUCGGUGGCGCGAUGGCGCCAACGUUCUCAACUAUGACACGCAAAACGCGUGCUCCGUUGAAUGGAGUUUAUCAUG [C57A A91G]	-2.76
GGAUCUUCUCGAUCUAACAAAAAAGACAAAUCUGCCACAAAGCUUGAGAGCAUCUGCGGAUGCAGAGGCGGCAGCCUUCGGUGGCGCGAUAUCGCCUACGUUCUUAACUAUGACACGCAAAACGCGUGCUCCGUUGAAUGGAGUUUAUCAUG [U56G G92U A97U C105U]	-1.61
GGAUCUUCUCGAUCUAACAAAAAAGACAAAUCUGCCACAAAGCUUGAGAGCAUCUGCGGAUGCAGAGGCGGCAGCCUUCGGUGGCGCGAUAGCGCCAACGUUCUCAACUAUGACACGCAAAACGCGUGCUCCGUUGAAUGGAGUUGAUCAUG [U56G U146G]	-3.46
GGAUCUUCUCGAUCUAACAAAAAAGACAAAUCUGCCACAAAGCUUGAGAGCAUCUGCGGAUGCAGAGGCGGCAGCCUUCGGUGACGCGAUAGCGCCAACGUUCUCAACUAUGACACGCAAAACGCGUGCUCCGUUGAAUGGAGUUUAUCAUG [U56G G84A]	-3.48
GGAUCUUCUCGAUCUAACAAAAAAGACAAAUCUGCCACAAAGCUUGAGAGCAUCUUAGGAUGCAGAGGCGGCAGCCUUCGGUGGCGCGAUAGCGCCAACGUUCUCAACUAUGCCACGCUAAACGCGUGCUCCGUUGAAUGGAGUUUAUCAUG [C57A A113C A119U]	-1.37
GGAUCUUCUCGAUCUAACAAAAAAGACAAAUCUGCCACAAAGCUUGAGAGCAUCUUAGGAUGCAGAGGCGGUAGCCUUCGGUGGCGCGAUAGCGCCAACGUUCUCAACUAUGACACGCAAAACGCGUGCUCCGUUGAAUGGAGUUUAUCUUG [C57A C72U A150U]	-0.157
GGAUCUUCUCGAUCUAACAAAAAAGACAAAUCUGCCACAAAGCUUGAGAGCAUCUGCGGAUGCAGAGGCGGCAGCCUUCGGUGGCGCUAUAUCGCUAACGUUCUCAACUAUGACACGCAAAACGAGUGCUCCGUUGAAUGGAGUUUAUCAUG [U56G G88U G92U C96U C125A]	-3.87
GGAUCUUCUCGAUCUAACAAAAAAGACAAAUCUGCCACAAAGCUUGAGAGCAUCUUAGGAUGCAGAGGCGGCAGCCUUCGGUGGCGCGAUAGCGCCAACGUUCUCAACUAUGACACGCAAAACGCGUGCUCCGUUGAAUGGAGUUUAUCUUG [C57A A150U]	1.72
GGAUCUUCUCGAUCUAACAAAAAAGACAAAUCUGCCACAAAGCUUGAGAGCAUCUUAGGAUGCAGAGGCGGCAGCCUUCGGUGGCGCGAUAGCGCCAACGUUCUCAACUAUGACACGCAAAACGCGUGCUCCGUUGACUGGAGUUUAUCAUG [C57A A138C]	-3.77
GGAUCUUCUCGAUCUAACAAAAAAGACAAAUCUGCCACAAAGCUUGAGAGCAUCUGCGGAUGCAGAGGCGGCAGCCUUCGGAGGCGCGGUAGCGUCAACGUUCUCAACUAUGACACGCAAAACGCGUGCUCCCUUGAAUGGAGUUUAUCAUG [U56G U82A A89G C95U G133C]	-3.49
GGAUCUUCUCGAUCUAACAAAAAAGACAAAUCUGCCACAAAGCUUGAGAGCAUCUUAGGAUGCAGAGGGGGCAGCCUUCGGUGGCGCGAUUGCGCCAACGUUCUCAACUAUGACACGCGAAACGCGUACUCCGUUGAAUCGAGUGUAUCAUG [C57A C69G A91U A119G G128A G140C U145G]	≤ -4.2
GGAUCUUCUCGAUCUAACAAAAAAGACAAAUCUGCCACAAAGCUUGAGAGCAUCUUAGGAUGCAGAGGCGGCAGCCUUCGGUGGCGCGAUAGCGCCAACGUUCUCAACUAUGUCACGCAAAACGCGUGCUCCGUUGAAUGGAGUUUAUCAUG [C57A A113U]	-1.86
GGAUCUUCUCGAUCUAACAAAAAAGACAAAUCUGCCACAAAGCUUGAGAGCAUCUUAGGGUGCAGAGGCGGCAUCCUUCGGUGGCGCGAUAGCGCCAACGUUCUCAACUAUGACACGCAAAACGCGUGCUCCGUUGAAUGGAGUUUAUCAUG [C57A A60G G74U]	-4.12
GGAUCUUCUCGAUCUAACAAAAAAGACAAAUCUGCCACAAAGCUUGAGAGCAUCUUAGGAUGCAGAGGCGGCAGCCUUCGGUGGAGCGAUAGCGCCAACGUUCUCAACUAUGACACGCAAAACGCGUGCUCCGUUGAAUGGAGUUUAUCAUG [C57A C85A]	-1.28
GGAUCUUCUCGAUCUAACAAAAAAGACAAAUCUGCCACAAAGCUUGAGAGCAUCUUAGGAUGCAGAGGCGGCAGCCUUCGGUGGUGCGAUAGCGCCAACGUUCUCAACUAUGACACGCAAAACGCGUGCUCCGUUGAAUGGAGUUUAUCAUG [C57A C85U]	-0.0999
GGAUCUUCUCGAUCUAACAAAAAAGACAAAUCUGCCACAAAGCUUGAGAGCAUCUUAGGAUGCAGAGGCGGCAGCCUUCGGUGGGGCGAUAGCGCCAACGUUCUCAACUAUGACACGCAAAACGCGUGCUCCGUUGAAUGGAGUUUAUCAUG [C57A C85G]	-1.75
GGAUCUUCUCGAUCUAACAAAAAAGACAAAUCUGCCACAAAGCUUGAGAGCAUCUGCGGAUGCAGAGGCGGCAGCCUCCGGUGGAGCGAUAGCGCCAACGUUCUCAACUAUGACACGCAAAAUGCGUGCUCCGUUGAAUGGAGUUUAUCAUG [U56G U78C C85A C123U]	-1.43

Variant	polymerase ribozyme fitness (log ratio)
GGAUCUUCUCGAUCUAACAAAAAAGACAAAUCUGCCACAAAGCUUGAGAGCAUCUUAGGAUGCAGAGGCGGCGGCCUUCGGUGGCGCGAUAGCGCCAACGUUCUCAACUAUGACACGCAAAACGAGUGCUCCGUUGAAUGGAGUUUAUCAUG [C57A A73G C125A]	-0.303
GGAUCUUCUCGAUCUAACAAAAAAGACAAAUCUGCCACAAAGCUUGAGAGCAUCUUAGGAUGCAGAGGCGGCAGCCUUCGGUGGCGCGCUAGCUCCAACGUUCUCAACUAUGACACGCAAAACGCGUGCUCCGUUGAAUGGGGUUUAUCAUG [C57A A89C G94U A142G]	-3.19
GGAUCUUCUCGAUCUAACAAAAAAGACAAAUCUGCCACAAAGCUUGAGAGCAUCUUAGGAUGCAGAGGCGGCAGCUUUCGGUGGCGCGAUAGCGCCAACGUUCUCAACUAUGACACGCAAAACGCGUGCUCCGUUGAAUGGAGUUUAUCAUG [C57A C76U]	0.264
GGAUCUUCUCGAUCUAACAAAAAAGACAAAUCUGCCACAAAGCUUGAGAGCAUCUGCGGAUGCAGAGGCGGCAGCCUUCGGUGUAGCGAUAGCGCCAAUGUUCUCAACUAUGACACGCAAAACGCGUGCUCCGUUGAAUGGAGUUUAUCAUG [U56G G84U C85A C99U]	≤ -4.2
GGAUCUUCUCGAUCUAACAAAAAAGACAAAUCUGCCACAAAGCUUGAGAGCAUCUGCGGAUGCAGAGGCGGCAGCCUGUGGUGGCAGGAUAGCGACAACGUUCUCAACUAUGACUCGCAAAACGCGUGCUCCGUUGAAUGGAGUUUAUCAUC [U56G U78G C79U G86A C87G C95A A115U G152C]	≤ -4.2
GGAUCUUCUCGAUCUAACAAAAAAGACAAAUCUGCCACAAAGCUUGAGAGCAUCUUAGGAUGCAGAGGCGGCAGCCUUCGGUGGCGCGGUAGCGUCAACGUUCUCAACUAUGACACGCUUAACGUGUGCUCCGUUGAAUGGAGUUUAUCAUG [C57A A89G C95U A119U A120U C125U]	-1.54
GGAUCUUCUCGAUCUAACAAAAAAGACAAAUCUGCCACAAAGCUUGAGAGCAUCUUAGGAUGCAGAGGCGGCAGCUUUCGGUGGUGCGAUACCGCCAACGUUCUCAACUAUGACACGCAAAACGCCUGCUCCGUUGAAUGGAGUUUAUCAUG [C57A C76U C85U G92C G126C]	-2.15
GGAUCUUCUCGAUCUAACAAAAAAGACAAAUCUGCCACAAAGCUUGAGAGCAUCUUAGGAUGCAGAGGCGGCAGCGUUCGGUGGCGCGAUAGCGCCAACGUUCUCAACUAUGGCACGCAAAACGCAUGAUCCGGUGAAUGGAGUUUAUCAUG [C57A C76G A113G G126A C129A U134G]	≤ -4.2
GGAUCUUCUCGAUCUAACAAAAAAGACAAAUCUGCCACAAAGCUUGAGAGCAUCUGCGGAUGCAGAGGCGGCAGCCUUCGGUGGCGCGAUAGCGCCAACGUUCUCAACUAUGACACGCAAAACGCGUGCUCCGUAGAAUGGAGUUUAUCAUG [U56G U135A]	-1.84
GGAUCUUCUCGAUCUAACAAAAAAGACAAAUCUGCCACAAAGCUUGAGAGCAUCUGCGGAUGCAGAGGCGGCAGCCUUCGGUGGCGCGAUAGCGCCAACGUUCUCAACUAUGACACGCAAAACGCGUGCUCCGUGGAAUGGAGUUUAUCAUG [U56G U135G]	-3.68
GGAUCUUCUCGAUCUAACAAAAAAGACAAAUCUGCCACAAAGCUUGAGAGCAUCUGCGGAUGCAGAGGCGGCAGCCUUCGGUGGCGCGAUAGCGCCAACUUUCUCAACUAUGACACGCAAAACGCGUGCUCCGAUGAAUGGAGUUAAACAUG [U56G G100U U134A U146A U148A]	≤ -4.2
GGAUCUUCUCGAUCUAACAAAAAAGACAAAUCUGCCACAAAGCUUGAGAGCAUCUGCGGAUGCAGAGGCGGCAGCCUUCGGUGUCGCGAUAGCGCCUAGGUUCUCAACUAUGACACGCAAAACGCGUGCUCCUUUGAAUGGAGUUUAUCAUG [U56G G84U A97U C99G G133U]	≤ -4.2
GGAUCUUCUCGAUCUAACAAAAAAGACAAAUCUGCCACAAAGCUUGAGAGCAUCUUAGGCUGCAGAGGCGGCAGCCUUCGGUGGCGCGAUAGCGCCAACGUUCUCAACUAUGACACGCAAAACGCGUGCUCCGUUGAAUGGAGUUUAUCAUG [C57A A60C]	-1.35
GGAUCUUCUCGAUCUAACAAAAAAGACAAAUCUGCCACAAAGCUUGAGAGCAUCUUAGGAUGCGGGGGCGGCAGCCUUCGGUGGCGCGAUAGCGCCAACGUUCUCAACUAUGACACGUAAAACGCGUGCUCCGUUGAAUGGAGUUUCUCAUU [C57A A64G A66G C118U A147C G152U]	≤ -4.2
GGAUCUUCUCGAUCUAACAAAAAAGACAAAUCUGCCACAAAGCUUGAGAGCAUCUUAGGAUGCAGAGGCGGCAGCCUUCGGUGGCGCGUUAGCGCCAGCGUUCUCAACUAUGACACGCAAAACGCGUGCUCCGUUGAAUGGAGUUUAUCAUG [C57A A89U A98G]	0.118
GGAUCUUCUCGAUCUAACAAAAAAGACAAAUCUGCCACAAAGCUUGAGAGCAUCUUAGGAUGCAGAGGCGGCAGCCUUCGGUGGCGCGAUAGCGCCAACGUUCUCAACUAUGACACGCAAAACGCGUGCUCCGUUGAAUGGAGUUUAUCAUG [C57A]	-0.00233
GGAUCUUCUCGAUCUAACAAAAAAGACAAAUCUGCCACAAAGCUUGAGAGCAUCUUAGGAUGCCGAGGCGGCAGCCUUCGGUGGAGCGAUAGCGUCAACGUUCUCAACUAUGACACGCAAAACGCGUGCACCGUUGAAUGGAGUUUUUCAUG [C57A A64C C85A C95U U130A A147U]	≤ -4.2
GGAUCUUCUCGAUCUAACAAAAAAGACAAAUCUGCCACAAAGCUUGAGAGCAUCUUAGGAUGCAGAGGCGGCAGUCUUCGGUGGCGCGAUACCGCCAACGUUCUCAACUAUGACACGCAAAACGCGUGCUCCGUUGAAUUGAGUUUAUCAUG [C57A C75U G92C G140U]	≤ -4.2
GGAUCUUCUCGAUCUAACAAAAAAGACAAAUCUGCCACAAAGCUUGAGAGCAUCUUAGGGUGCAGAGGCGGCAGCCUUGGGUGGCGCGAUAGCGCCAACGUUCUCAACUAUGACACGCAAAACGCGUGCUCCGUUGAAUGGAGUUUAUCAUG [C57A A60G C79G]	-3.6
